Target: FtsZ-F268C labeled with fluorescein 5-maleimide (donor) or tetramethylrhodamine 5-maleimide (acceptor) (E. coli) (UniProt P0A9A6)

B1: FtsA-R286W (FtsA*) from E. coli (natural protein)
chain: MIKATDRKLVVGLEIGTAKVAALVGEVLPDGMVNIIGVGSCPSRGMDKGGVNDLESVVKCVQRAIDQAELMADCQISSVYLALSGKHISCQNEIGMVPISEEEVTQEDVENVVHTAKSVRVRDEHRVLHVIPQEYAIDYQEGIKNPVGLSGVRMQAKVHLITCHNDMAKNIVKAVERCGLKVDQLIFAGLASSYSVLTEDERELGVCVVDIGGGTMDIAVYTGGALRHTKVIPYAGNVVTSDIAYAFGTPPSDAEAIKVRHGCALGSIVGKDESVEVPSVGGRPPWSLQRQTLAEVIEPRYTELLNLVNEEILQLQEKLRQQGVKHHLAAGIVLTGGAAQIEGLAACAQRVFHTQVRIGAPLNITGLTDYAQEPYYSTAVGLLHYGKESHLNGEAEVEKRVTASVGSWIKRLNSWLRKEF
FRET assay of subunit exchange of FtsZ protofilaments at steady state with FtsA*, pH 6.5: reaction time τ (13.1 s for FtsZ alone): 38 s

Source: publication PMC5473857
